IntAct's records for PubMed 35016035

B1: Protein FAM90A1 (Homo sapiens), Q86YD7 (parent)
chain: MMARRDPKPGAKRLVRAQTLQKQRRAPVGPRAPPPDEEDPRLKCKNCEAFGHTARSTRCPMKCWKAALVPPNFGEKEGKENLKPWKPQVEANPGPLNKDKGEKEERPRPQDPQRKALLHIFSRKPPEKPLPNQKGSTESSDYLRVASGPMPVHTTSKRPRVDPVLSDRSATEMSDRGSVLASLSPLRKASLSSSSSLGPKERQTGAAADIPQTAVRHQGPEPLLVVKPTHSSPAGGCREVPQAASKTHGLLQAVSPQAQDKRPAVTSQPCPPAATHSLGLGSNLSFGPGAKRSAPAPIQACLNFPKKPRLGPFQIPESAIQGGELGAPENLQPPPAATELGPRTSPQTGTRTPAQVLSGDRQPPHSRPCLPTAQACTMSHHPAASHDGAQPLRVLFRRLENGRWSSSLLTAPSFHSPEKPGAFLAQSPHVSEKSEGPCVRVPPSVLYEDLQVPSSSEDSDSDLE
B2: Speedy protein E4 (Homo sapiens), A6NLX3 (parent)
chain: MASGQARPPFEEESPQPSTTVRSPEVVVDDEVPGPSAPWIDPSPQPQSLGLKRKSEWSDESEEELEEELELERAPEPEDTWVVETLCGLKMKLKRKRASSVLPEHHEAFNRLLGDPVVQKFLAWDKDLRVSDKYLLAMVIAYFSRAGLFSWQYQRIHFFLALYLASDMEEDNQAPKQDIFSFLYGKNYSQRPLFHKLRYQLLCSMRWRTWVSPEEMEEIQAYDPEHWVWARDRTLIS

Variants of: B1
Settings: with brd4_human BRD4, O60885

| Variant | effect of a mutation on the interaction |
| --- | --- |
| V394D;F396D;W404D;S406D | disrupting interaction strength |

Variants of: B2
Settings: with brd4_human BRD4, O60885

| Variant | effect of a mutation on the interaction |
| --- | --- |
| V83D;L86D;M91D;L93D | disrupting interaction strength |
